The numbers were not newly measured in PMC4081073, which cites them from elsewhere.

The target in the data set is EcoRI restriction endonuclease (Escherichia coli) (UniProt P00642).

pKd: −log10 of the molar value.

The term pKd denotes the Kd on a negative log10 scale, so that one unit is a factor of ten. For “EcoRI restriction endonuclease (from UniProt P00642)”, the pKd is 7.00.
